{
  "source": "paper PMC7761795",
  "origin": "cited, not measured here",
  "key": {"UBE2N (Homo sapiens) [1]": {"target": "UBE2N (Homo sapiens) (UniProt P61088)", "sequence (P61088 whole entry)": "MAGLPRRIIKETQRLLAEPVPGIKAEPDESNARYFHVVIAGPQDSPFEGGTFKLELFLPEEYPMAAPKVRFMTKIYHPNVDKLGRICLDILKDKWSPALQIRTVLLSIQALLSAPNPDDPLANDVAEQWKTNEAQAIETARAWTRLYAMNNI", "test": "SPR", "conditions": "cited from earlier work"}, "UBE2N (Homo sapiens) [2]": {"target": "UBE2N (Homo sapiens) (UniProt P61088)", "test": "fluorescence polarization", "conditions": "cited from earlier work"}},
  "data": [
    {"substance": "OTUB1 (from UniProt Q96FW1)", "values": [
      {"measurement": "Kd", "setting": "UBE2N (Homo sapiens) [1]", "result": 8.9, "unit": "µM"},
      {"measurement": "Kd", "setting": "UBE2N (Homo sapiens) [2]", "result": 7.04, "unit": "µM"}
    ]}
  ]
}
